Assay results from US10765761B2, “Nucleic acid condensing peptide, nucleic acid condensing peptide set, nucleic acid delivery carrier, nucleic acid delivery method, cell production method, cell detection method and kit” (KABUSHIKI KAISHA TOSHIBA, priority 2016, dated 2020).

Legend:
[1] = Average particle diameter and Zeta potential of liposome (zetasizer), Example 3; format: physicochemical
Experimental: COATSOME/SS-20 (Nippon Oil & Fats), DOPE, cholesterol and DMG-PEG were dissolved into ethanol at a molar ratio of 5:3:1:0.3, to obtain a lipid solution. Two sets of lipid solutions (0.5 ml) put into tubes were prepared, and 0.5 ml of peptide-nucleic-acid solutions (8) (mHP-1) and (16) (mHP-3) of Example 1 were dropped thereto while stirring each lipid solution, thereby forming liposomes. 9 ml of 10 mM-HEPES (pH: 5.3) was added to each of the liposome solutions to make a total amount of 10 ml (each liposome solution will be referred to as “Complex” hereinafter). Further, on an assumption that the liposome is taken into an organism, and liposome solutions (which will be referred to as “HEPES replacement”) in which ethanol, which is the solvent of Complex is substituted by HEPES were produced. The HEPES replacements were produced by condensing each solution of Complex to 1.5 ml with an ultrafiltration film for 300 kDa, adding 8.5 ml of 100 mM-HEPES (pH: 7.4) to each, performing ultrafiltration, thereafter substituting the solvent with 10 mM-HEPES (pH: 7.4), and finally condensing to 0.5 ml. Further, the HEPES replacements were filtered for sterilization with a filter with a pore diameter of 0.45 μm to prepare solutions (which will be referred to as “0.45 μm” hereinafter).
The “peptide-nucleic-acid solution”, “HEPES substituent” and “0.45 micrometer”, each of which contain the protamine, mHP-1 or mHP-3 prepared as above were examined in terms of average particle diameter of liposome, Zeta potential and amount of encapsulation of plasmid. The average particle diameter and Zeta potential were measured using a zetasizer. The amount of encapsulation of plasmid was measured using a Quant-iT PicoGreen (registered trademark) dsDNA assay kit.

[2] = system: human normal mammary gland epithelial cells (HMEC); experiment: Transfection of nucleic acid (pAmp-CMV-nLuc) into cells by liposome, luminescence imaging, Example 5; format: cell-based; conditions: 48 hours after addition of the liposome, NanoLuc (FIG. 10)
Excerpt: As nucleic acid to be encapsulated in the liposome, pAmp-CMV-nLuc was used. The pAmp-CMV-nLuc is a reporter vector which contains a NanoLuc gene as the reporter gene. The pAmp-CMV-nLuc includes a CMV promoter as a gene expression promoter, and in its lower stream, a NanoLuc gene, IRES sequence and a replication initiation protein (LT, large T antigen) gene of simian virus 40 (SV40) which are liked in this order, and further, in a lower stream, a replication initiation sequence (SV40 ori) of SV40. Using this nucleic acid, the protamine of Example 3 and the peptides of the mHP-1 and mHP-3, a liposome solution was produced by a method similar to that of Example 3.
The liposome solution prepared as above was added to human normal mammary gland epithelial cells (HMEC) (Kurabo Industries). The HMEC used here was prepared by reviving from an HMEC freeze stock and thereafter culturing in an incubator of a 5%-CO2 atmosphere at 37 degrees Celsius for six to seven days. […]
48 hours after the addition of the liposome, a luminescence substrate (Nano-Glo Luciferase Assay Substrate and Promega) was added to the culture medium to dilute to 1/2000. This culture dish was set to LV200 (a luminescence imaging system of Olympus) and photographed. […]

plasmid vector (pDNA) = experiment: Gel retardation assay: condensability and dissociation, Example 2; format: binding; conditions: 0.8% agarose gel, samples of any concentration (FIG. 6); for dissociation: PGA (+) sample; for condensability: PGA (-) sample
Experimental: The condensability of the nucleic acid by the peptide of the embodiment and the dissociation of the peptide and the nucleic acid were estimated by a gel retardation assay.
As samples for the condensability evaluation, 18 sets of 8.0 μL of 10 mM-HEPES (pH: 5.3) were prepared and 1.0 μL of the respective peptide-nucleic-acid solutions of Example 1 and […] were added thereto and mixed, thus preparing mixtures. As samples for the dissociation evaluation, 1.0 μL of peptide-nucleic-acid solutions and 1.0 μL of poly-glutamic-acid (PGA) solutions were added to 8.0 μL of 10 mM-HEPES solutions (pH: 5.3) and mixed, thereby preparing mixtures. After they were let stand still for 15 minutes at room temperature, 1.0 μL of an electrophoretic buffer (50%-sucrose solution) was added to each mixture, and they were mixed well, to carry out electrophoresis with a 0.8%-agarose gel. After the electrophoresis, the nucleic acid dyed with ethidium bromide was visualized by UV irradiation, and the nucleic acids condensed by the peptide and the nucleic acid dissociating with the peptide and moving into a gel were detected.
FIG. 6 is a photograph showing the agarose gel subjected to UV irradiation. Of two lanes indicated by the numbers of the respective samples, the left lane indicates the results of a PGA (−) sample (sample for the condensability evaluation) and the right lane for those of a PGA (+) sample (sample for the dissociation evaluation). When an integrated band with a large molecular weight, which strongly shines is observed in the left lane, it was evaluated as a high condensability. […] The mHP-1 and mHP-3 were excellent both in condensability and dissociation in the samples of any concentration. In particular, they were excellent in the peptide-nucleic-acid solutions (8) and (16).

| Sequence | Average particle diameter (zAve) ([1]; Peptide-nucleic acid solution) | Zeta potential ([1]; Peptide-nucleic acid solution) | Average particle diameter (zAve) ([1]; liposome, 0.45 μm filtered) | Zeta potential ([1]; liposome, 0.45 μm filtered) | Average particle diameter (zAve) ([1]; liposome, HEPES substitution) | Zeta potential ([1]; liposome, HEPES substitution) | luminescent cells (reporter gene expressed) [2] | dissociation (plasmid vector (pDNA)) | condensability (plasmid vector (pDNA)) |
| --- | --- | --- | --- | --- | --- | --- | --- | --- | --- |
| RQRQRGGRRRRRR (Nucleic acid condensing peptide) [mHP-3] | 113.4 nm | −43.90 mV | 218.2 nm | −2.95 mV | 240.5 nm | −3.39 mV | luminescence was observed in more cells than those of the sample which used the protamine | excellent | excellent |
| RQRQRYYRQRQRGGRRRRRR (Nucleic acid condensing peptide) [mHP-1] | 121.4 nm | −44.50 mV | 222.0 nm | −5.26 mV | 254.1 nm | −11.30 mV | luminescence was observed in most cells | excellent | excellent |
